Where two headings read alike, the source gives them in different places. Square brackets hold non-standard residues; d marks the D form. Ends that are not written are not given here. * marks the point of attachment. Lys(Me3) = C[N+](C)(C)CCCC[C@H](N)C(=O)O; diethyl = not defined here; Bz = O=C(c1ccccc1)*
T1: chromodomain of CDYL2 (human) (UniProt Q8N8U2)
T1 sequence: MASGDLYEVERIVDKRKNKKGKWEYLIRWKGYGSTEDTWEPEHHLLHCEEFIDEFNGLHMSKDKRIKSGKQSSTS

T2: chromodomain of CDYL2 (human, UniProt Q8N8U2 1-75)
T2 sequence (looked up): T1 sequence

T3: chromodomain of CBX4 (human, UniProt O00257-1 8-65)
T3 sequence (looked up): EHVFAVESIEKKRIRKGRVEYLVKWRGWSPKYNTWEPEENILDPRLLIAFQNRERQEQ

T4: chromodomain of CBX7 (human, UniProt O95931 8-62)
T4 sequence (looked up): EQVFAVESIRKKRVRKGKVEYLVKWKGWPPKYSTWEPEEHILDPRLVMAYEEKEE

T5: chromodomain of CBX8 (human, UniProt Q9HC52 8-61)
T5 sequence (looked up): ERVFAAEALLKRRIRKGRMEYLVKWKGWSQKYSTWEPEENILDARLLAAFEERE

B1: compound 4 (peptide)
peptide: Bz-AL[Lys(Me3)]S-OMe
SMILES: COC(=O)[C@H](CO)NC(=O)[C@H](CCCC[N+](C)(C)C)NC(=O)[C@H](CC(C)C)NC(=O)[C@H](C)NC(=O)c1ccccc1

Columns and labels:
Experiment in all cases: AlphaScreen or HTRF
[1] = target: chromodomain of CBX8 (human) (UniProt Q9HC52)
[2] = target: chromodomain of CBX7 (human) (UniProt O95931)
[3] = target: T1, chromodomain of CDYL2 (human)
[4] = target: chromodomain of CBX8 (human) (UniProt Q9HC52); remark: listed apart in the source
[5] = target: chromodomain of CBX4 (human) (UniProt O00257)
chromodomain of CBX5 [6] = target: chromodomain of CBX5 (human)
chromodomain of CDYL2 [7] = target: T2, chromodomain of CDYL2
chromodomain of CBX4 [8] = target: T3, chromodomain of CBX4
chromodomain of CBX7 [9] = target: T4, chromodomain of CBX7
chromodomain of CBX5 [10] = target: chromodomain of CBX5 (human); remark: listed apart in the source
chromodomain of CDYL2 [11] = target: T2, chromodomain of CDYL2; remark: listed apart in the source
chromodomain of CBX4 [12] = target: T3, chromodomain of CBX4; remark: listed apart in the source
chromodomain of CBX8 = target: T5, chromodomain of CBX8
chromodomain of CBX7 [13] = target: T4, chromodomain of CBX7; remark: listed apart in the source

chromodomain of CBX5 (human), sequence (Q9UN86 18-75): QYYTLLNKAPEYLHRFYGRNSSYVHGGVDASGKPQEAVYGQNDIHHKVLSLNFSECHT

| Molecule | IC50 [2] [µM] | IC50 [3] [µM] | IC50 [4] [µM] | IC50 [5] [µM] | IC50 (chromodomain of CBX5 [6]) [µM] | other results |
| --- | --- | --- | --- | --- | --- | --- |
| compound 1 (UNC3866) (peptide) | – | – | – | – | – | IC50 [1]: 1.3 µM |
| Bz-FAL[Lys(Me3)] (also: C-terminal R2 = -H in place of -CO-Ser-OMe (no Ser)) [compound 7] | > 60 | 37 | > 60 | > 60 | > 60 | – |
| B1 | > 60 | 16 | > 60 | > 60 | > 60 | – |
| Bz-FAL[Lys(Me3)]S-OMe [compound 5] | – | – | – | – | 49 | IC50 (chromodomain of CDYL2 [7]): 0.57 µM; IC50 (chromodomain of CBX4 [8]): 6.9 µM; IC50 (chromodomain of CBX7 [9]): 2.6 µM |
| {4‑tBu‑Bz}-FVLK(diethyl)S-OMe (reading uncertain) [compound 43] | – | – | – | – | – | IC50 (chromodomain of CBX5 [10]): > 60 µM; IC50 (chromodomain of CDYL2 [11]): 0.75 µM; IC50 (chromodomain of CBX4 [12]): 7.9 µM; IC50 (chromodomain of CBX8): 0.7 µM; IC50 (chromodomain of CBX7 [13]): 3.1 µM |
